Data taken from the supplement of paper PMC7932537, “Quantitative profiling of protease specificity” (PLoS Computational Biology, 2021).
± gives the uncertainty stated by the source.

Legend:
MMP-9 catalytic domain = MMP-9 catalytic domain (UniProt P14780); assay: kcat/KM (M-1 s-1); higher = more efficient cleavage by the protease
Procedure: (§1)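 Catalytic efficiency (kcat/KM) of synthetic peptides carrying hexamer sequences taken from MMP-2/9 substrate phage selections. Cleavage was measured with recombinant human MMP-2 or MMP-9 catalytic domains (expressed in HEK293, APMA-activated, active-site titrated with GM6001), in triplicate, as described in the authors' ref 27.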

MMP-2 catalytic domain = MMP-2 catalytic domain (UniProt P08253); assay: as above
Procedure: as §1

MMP-9 catalytic domain, sequence (P14780 whole entry, the tested form may be a part): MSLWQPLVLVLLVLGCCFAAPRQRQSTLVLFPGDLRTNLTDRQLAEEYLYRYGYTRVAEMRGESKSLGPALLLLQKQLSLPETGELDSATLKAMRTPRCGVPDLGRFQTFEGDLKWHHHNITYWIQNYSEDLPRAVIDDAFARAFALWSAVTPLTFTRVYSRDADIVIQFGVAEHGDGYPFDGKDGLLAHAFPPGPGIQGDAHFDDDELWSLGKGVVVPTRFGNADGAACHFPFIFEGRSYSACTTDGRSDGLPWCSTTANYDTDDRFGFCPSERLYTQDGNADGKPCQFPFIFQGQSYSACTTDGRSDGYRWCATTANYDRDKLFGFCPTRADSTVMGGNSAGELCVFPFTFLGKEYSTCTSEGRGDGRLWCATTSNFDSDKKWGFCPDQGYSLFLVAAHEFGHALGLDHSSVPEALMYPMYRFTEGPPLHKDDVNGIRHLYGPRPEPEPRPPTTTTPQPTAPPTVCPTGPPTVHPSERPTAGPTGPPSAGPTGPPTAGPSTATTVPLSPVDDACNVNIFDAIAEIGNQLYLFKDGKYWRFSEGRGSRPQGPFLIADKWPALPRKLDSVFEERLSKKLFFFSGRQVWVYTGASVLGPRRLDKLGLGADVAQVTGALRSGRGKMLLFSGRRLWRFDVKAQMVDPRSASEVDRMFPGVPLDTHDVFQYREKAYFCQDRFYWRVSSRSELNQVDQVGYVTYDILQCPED
MMP-2 catalytic domain, sequence (P08253 whole entry, looked up, the tested form may be a part): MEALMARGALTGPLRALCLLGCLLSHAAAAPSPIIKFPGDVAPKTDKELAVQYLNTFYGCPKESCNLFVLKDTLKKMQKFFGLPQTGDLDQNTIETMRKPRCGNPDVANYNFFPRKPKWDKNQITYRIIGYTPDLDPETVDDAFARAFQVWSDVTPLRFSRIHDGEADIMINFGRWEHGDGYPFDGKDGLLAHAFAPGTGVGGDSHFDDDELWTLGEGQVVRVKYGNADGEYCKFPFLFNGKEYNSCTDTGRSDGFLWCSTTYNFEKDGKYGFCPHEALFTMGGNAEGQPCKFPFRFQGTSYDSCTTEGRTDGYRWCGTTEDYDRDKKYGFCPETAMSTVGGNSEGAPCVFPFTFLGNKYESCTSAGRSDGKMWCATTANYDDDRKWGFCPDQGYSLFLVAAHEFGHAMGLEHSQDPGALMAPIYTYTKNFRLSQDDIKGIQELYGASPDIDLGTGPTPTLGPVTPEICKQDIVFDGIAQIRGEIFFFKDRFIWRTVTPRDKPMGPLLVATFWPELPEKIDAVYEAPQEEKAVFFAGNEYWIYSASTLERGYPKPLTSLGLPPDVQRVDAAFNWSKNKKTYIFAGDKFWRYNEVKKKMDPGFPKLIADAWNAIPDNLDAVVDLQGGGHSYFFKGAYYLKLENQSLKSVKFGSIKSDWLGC

| kcat/KM (MMP-9 catalytic domain) | kcat/KM (MMP-2 catalytic domain) | Substance |
| --- | --- | --- |
| 9130 ± 640 | 16400 ± 620 | AHNLSS |
| 33400 ± 740 | 34400 ± 940 | APALWI |
| 25200 ± 1700 | 15840 ± 130 | ARHYKS |
| 9530 ± 160 | 22200 ± 940 | DGPVSF |
| 0 | 0 | DRKPKA |
| 37200 ± 4900 | 56400 ± 5200 | DSPQNL |
| 55400 ± 2200 | 133000 ± 23000 | EGPAGL |
| 18900 ± 2200 | 17700 ± 940 | EPKPLL |
| 2680 ± 64 | 7230 ± 110 | EPVSLA |
| 7950 ± 380 | 19700 ± 660 | ETPRPW |
| 43200 ± 580 | 47700 ± 3300 | EVPQAL |
| 15500 ± 1100 | 8910 ± 670 | GEPFEL |
| 52200 ± 3000 | 48000 ± 960 | GEPRGQ |
| 43700 ± 2600 | 69800 ± 46000 | GKPVSM |
| 49830 ± 250 | 181000 ± 96000 | GPAGIR |
| 17500 ± 760 | 12600 ± 210 | GPALSY |
| 26200 ± 1600 | 39700 ± 1900 | GPARPY |
| 3600 ± 320 | 9100 ± 920 | GPEGMK |
| 22100 ± 340 | 16400 ± 670 | GPHGYK |
| 34000 ± 2300 | 88300 ± 4700 | GPKGFR |
| 71030 ± 710 | 125000 ± 5300 | GPRGLK |
| 37800 ± 1800 | 30900 ± 11000 | GPRYLM |
| 90600 ± 8800 | 51400 ± 4300 | GQPMNL |
| 8720 ± 330 | 32100 ± 18000 | HPVSMV |
| 74100 ± 8200 | 114000 ± 14000 | INPQGL |

| kcat/KM (MMP-9 catalytic domain) | kcat/KM (MMP-2 catalytic domain) | Substance |
| --- | --- | --- |
| 3730 ± 120 | 45700 ± 960 | IPLASL |
| 97100 ± 7900 | 43200 ± 4200 | IRPKHF |
| 84500 ± 2000 | 37600 ± 1600 | KPVNMT |
| 34600 ± 230 | 6570 ± 450 | KSPLRQ |
| 109000 ± 7600 | 62600 ± 6300 | KSPQAM |
| 66100 ± 4700 | 46500 ± 1900 | KSPQSY |
| 140000 ± 4400 | 182000 ± 45000 | KSPSRL |
| 18400 ± 730 | 15000 ± 600 | KSPVGV |
| 45900 ± 2300 | 42400 ± 1700 | LPKPLR |
| 46100 ± 1800 | 10000 ± 610 | LSPFGQ |
| 73000 ± 9100 | 64800 ± 3000 | MGPLGQ |
| 31800 ± 2600 | 39300 ± 3400 | MRPVGH |
| 94700 ± 7900 | 188000 ± 23000 | MSPANI |
| 21200 ± 1300 | 22600 ± 6500 | NPMPIR |
| 20300 ± 620 | 35600 ± 560 | NPQNIR |
| 46200 ± 2100 | 88100 ± 10000 | NRPNNL |
| 27000 ± 2400 | 23900 ± 1000 | NVARPM |
| 15200 ± 610 | 51800 ± 1300 | PAGVKA |
| 49000 ± 6600 | 87800 ± 14000 | PAPNSL |
| 7420 ± 290 | 26000 ± 290 | PAQLHV |
| 19900 ± 590 | 33700 ± 1200 | PEGLQG |
| 89400 ± 9500 | 104000 ± 6400 | PEPAAL |
| 59800 ± 2100 | 154000 ± 23000 | PGPAGQ |
| 38500 ± 1900 | 22800 ± 800 | PGPIGI |
| 28700 ± 860 | 27000 ± 1000 | PGPIGW |

| kcat/KM (MMP-9 catalytic domain) | kcat/KM (MMP-2 catalytic domain) | Substance |
| --- | --- | --- |
| 12500 ± 270 | 16300 ± 2800 | PHGLAT |
| 54200 ± 4300 | 34600 ± 650 | PHGYKG |
| 51700 ± 1400 | 23800 ± 1000 | PHNILS |
| 75300 ± 11000 | 30700 ± 650 | PHPRLL |
| 11900 ± 320 | 10300 ± 350 | PIQLQS |
| 37300 ± 1400 | 31000 ± 590 | PKALPY |
| 85700 ± 1400 | 48000 ± 2700 | PKGYQG |
| 24900 ± 1200 | 10000 ± 190 | PLQLQT |
| 33200 ± 5000 | 12300 ± 2000 | PLRQIG |
| 36900 ± 3300 | 15300 ± 440 | PMALMD |
| 46000 ± 1400 | 15300 ± 280 | PMDIHA |
| 40400 ± 1100 | 37400 ± 1300 | PQGLAG |
| 48400 ± 2200 | 53800 ± 2400 | PQPEGL |
| 55200 ± 2700 | 32300 ± 2800 | PQPLDL |
| 45500 ± 5000 | 51200 ± 2200 | PQPSEL |
| 896 ± 900 | 1390 ± 1400 | PRGFSH |
| 62100 ± 850 | 58000 ± 1400 | PRGVKG |
| 23900 ± 850 | 9900 ± 730 | PRPFHH |
| 17000 ± 880 | 13400 ± 1100 | PRPQAA |
| 50100 ± 8300 | 92000 ± 14000 | PSNMEG |
| 18600 ± 1600 | 70600 ± 3700 | PSPADI |
| 69100 ± 1900 | 35900 ± 2400 | PTPKAL |
| 12400 ± 760 | 7030 ± 260 | PVAIPM |
| 64000 ± 7200 | 60400 ± 1200 | PVGMKG |
| 9420 ± 660 | 15700 ± 290 | PVNMTD |

| kcat/KM (MMP-9 catalytic domain) | kcat/KM (MMP-2 catalytic domain) | Substance |
| --- | --- | --- |
| 26000 ± 1200 | 5850 ± 600 | PYEWHS |
| 51400 ± 2200 | 54400 ± 2400 | PYGIKG |
| 72300 ± 1400 | 92100 ± 1800 | QGPAAI |
| 45100 ± 1200 | 28400 ± 1100 | QPLEIR |
| 18700 ± 350 | 15400 ± 1400 | QPPLPL |
| 70100 ± 2900 | 46800 ± 2300 | QQPQAL |
| 94300 ± 1600 | 259000 ± 29000 | QQPSRL |
| 61100 ± 2800 | 31000 ± 750 | QSPINL |
| 9020 ± 390 | 25300 ± 650 | RMMREL |
| 16500 ± 1300 | 21300 ± 500 | RPEDLR |
| 38200 ± 2100 | 25000 ± 850 | RRPRPL |
| 11600 ± 400 | 12900 ± 340 | SAAQPL |
| 22400 ± 340 | 15100 ± 430 | SIPLPL |
| 11400 ± 440 | 18400 ± 250 | SPMAFS |
| 64400 ± 1800 | 79700 ± 8500 | SPPAAI |
| 16400 ± 740 | 98800 ± 35000 | SRPAEF |
| 45100 ± 8000 | 141600 ± 1200 | TAPSSQ |
| 21100 ± 1300 | 107000 ± 13000 | TPAAMT |
| 106000 ± 4800 | 54700 ± 1400 | TQPKAM |
| 41000 ± 7100 | 115000 ± 20000 | TTPSPI |
| 48900 ± 1900 | 18000 ± 700 | VEPLKF |
| 33900 ± 3000 | 34300 ± 940 | VHPSAV |
| 16200 ± 1600 | 27700 ± 1800 | VPQEWR |
| 7040 ± 190 | 24900 ± 1200 | VSALSS |
| 11600 ± 180 | 36800 ± 970 | WPSPFR |
